Data taken from patent publication US7119066 (Regeneron, dated 2006).

Columns and labels:
[1] = molecular target: T1, rat CNTF receptor on rat superior cervical ganglia (SCG) neurons (rat, UniProt Q08406 23-342); assay: competition with 125I-rat CNTF on rat SCG neurons
T1 construct: whole, on cells; also called rat SCG neurons; rat receptor
T1 sequence (looked up): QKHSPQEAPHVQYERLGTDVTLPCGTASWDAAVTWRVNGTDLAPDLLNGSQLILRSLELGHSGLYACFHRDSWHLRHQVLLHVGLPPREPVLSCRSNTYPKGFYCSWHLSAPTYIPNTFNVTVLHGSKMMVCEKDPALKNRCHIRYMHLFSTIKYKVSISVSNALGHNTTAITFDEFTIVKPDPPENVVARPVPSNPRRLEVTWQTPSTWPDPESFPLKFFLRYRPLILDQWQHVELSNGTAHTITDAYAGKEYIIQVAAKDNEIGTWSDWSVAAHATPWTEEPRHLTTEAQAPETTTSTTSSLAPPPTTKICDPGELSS
Description: Growth medium consisted of Ham's nutrient mixture F12 with 10% heat-inactivated fetal bovine serum (Hyclone), nerve growth factor (NGF) (100 ng/ml), penicillin (50 U/ml) and streptomycin (50 µg/ml). Cultures were maintained at 37° C. in a humidified 95% air/5% CO_2 atmosphere. Ganglion non-neuronal cells were eliminated by treatment with araC (10 µM) on days 1 and 3 of culture. Cultures were fed 3 times/week and were routinely used for binding assays within 2 weeks.
(§1) Binding was performed directly on cell monolayers. Cells in culture wells were washed once with assay buffer consisting of phosphate buffered saline (PBS; pH 7.4), 0.1 mM bacitracin, 1 mM PMSF, 1 µg/ml leupeptin, and 1 mg/ml BSA. […] Non-specific binding was determined in the presence of 1,000-fold excess of unlabelled CNTF. Specific binding towards MG87/CNTFR was 80–90%. Data were analyzed using the […] program (ISI, Philadelphia, Pa.).

[2] = molecular target: T2, human CNTF receptor alpha-component on MG87/CNTFR fibroblasts (human, UniProt P26992 23-342); assay: competition with 125I-rat CNTF on MG87/CNTFR cells
T2 construct: whole, on cells; also called huCNTFR; CNTFRα
T2 sequence (looked up): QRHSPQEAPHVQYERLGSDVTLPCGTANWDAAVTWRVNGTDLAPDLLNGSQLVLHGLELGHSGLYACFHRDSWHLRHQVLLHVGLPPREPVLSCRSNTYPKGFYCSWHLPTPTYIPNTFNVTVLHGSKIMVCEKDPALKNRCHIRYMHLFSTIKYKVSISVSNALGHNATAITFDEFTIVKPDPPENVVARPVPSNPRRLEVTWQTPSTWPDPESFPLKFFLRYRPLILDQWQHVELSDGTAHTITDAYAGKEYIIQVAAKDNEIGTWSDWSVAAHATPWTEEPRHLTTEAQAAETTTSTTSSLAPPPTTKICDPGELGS
Description: as §1
Similar results were obtained from competition experiments with mouse fibroblasts transfected with a plasmid directing the expression of the human CNTF receptor (FIG. 4b).

B1: recombinant human CNTF (ciliary neurotrophic factor) (ligand)
chain: MAFTEHSPLTPHRRDLCSRSIWLARKIRSDLTALTESYVKHQGLNKNINLDSADGMPVASTDQWSELTEAERLQENLQAYRTFHVLLARLLEDQQVHFTPTEGDFHQAIHTLLLQVAAFAYQIEELMILLEYKIPRNEADGMPINVGDGGLFEKKLWGLKVLQELSQWTVRSIHDLRFISSHQTGIPARGSHYIANNKKM
notes: also called rHCNTF; hCNTF
- fold less potent than unlabelled rat CNTF [1]: 90 times
- fold less potent than rat CNTF [2]: 12 times
